Like-named read-outs stand apart in the source and are kept apart here.

Among the data in patent US20260250425A1 (UNIVERSITY OF CHICAGO, published 2026) are Ka values, retold here.

Assay [1] concerns the target T1, human C1q (human, UniProt P02745 23-245; P02746 28-253; P02747 29-245).
T1 construct: Purified human C1q (CompTech); also called hc1q; hC1q
The assay is described as follows: ELISA, human C1q-coated plate. In general terms: An ELISA detects its analyte on a solid surface through an enzyme-linked reagent.

Assay [2] has as its target T1, human C1q. The experiment in a line: ELISA, human C1q-coated plate. The source holds these as a separate data set.
The target in assay [3] is T2, human FcγRIA (human, UniProt P12314 16-288, limits assumed).
T2 construct: Recombinant His-tagged protein
The assay is described as follows: ELISA, His-tagged FcγR captured by anti-His antibody.

Assay [4] has as its target T3, human FcγRIIA (R131) (human, UniProt P12318 34-218, limits assumed).
T3 construct: Recombinant His-tagged protein
T3 sequence (looked up): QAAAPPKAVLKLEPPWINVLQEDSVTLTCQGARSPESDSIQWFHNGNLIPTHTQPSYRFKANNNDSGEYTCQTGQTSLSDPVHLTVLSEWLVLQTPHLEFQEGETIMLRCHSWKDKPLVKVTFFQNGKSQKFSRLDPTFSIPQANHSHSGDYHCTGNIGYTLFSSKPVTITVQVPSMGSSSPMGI
The assay is described as above.

Assay [5] addresses T4, human FcγRIIA (H131) (human, UniProt P12318 34-218, limits assumed).
T4 construct: Recombinant His-tagged protein
T4 sequence (looked up): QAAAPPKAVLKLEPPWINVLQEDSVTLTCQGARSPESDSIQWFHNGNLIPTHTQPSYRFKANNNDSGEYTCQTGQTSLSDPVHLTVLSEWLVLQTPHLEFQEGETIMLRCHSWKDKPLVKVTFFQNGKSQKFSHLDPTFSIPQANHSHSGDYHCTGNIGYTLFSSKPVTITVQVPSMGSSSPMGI
The description is as above.

Assay [6] concerns the target T5, human FcγRIIB (human, UniProt P31994 43-217, limits assumed).
T5 construct: Recombinant His-tagged protein; also called FcγRIIB (human)
T5 sequence (looked up): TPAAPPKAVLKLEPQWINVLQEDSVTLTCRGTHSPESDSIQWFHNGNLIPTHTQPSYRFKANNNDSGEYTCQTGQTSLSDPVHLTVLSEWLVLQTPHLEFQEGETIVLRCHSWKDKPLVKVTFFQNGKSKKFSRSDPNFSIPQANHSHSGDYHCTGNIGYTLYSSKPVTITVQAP
The description is as above.

The target of assay [7] is T6, human FcγRIIIA (V158) (human, UniProt P08637 17-208).
T6 construct: Recombinant His-tagged protein
The description is as above.

The target in assay [8] is T7, human FcγRIIIA (F158) (human, UniProt P08637 17-208).
T7 construct: Recombinant His-tagged protein
Described as above.

The target of assay [9] is T8, mouse FcγRI (mouse, UniProt P26151 25-297).
T8 construct: Recombinant His-tagged protein
T8 sequence (looked up): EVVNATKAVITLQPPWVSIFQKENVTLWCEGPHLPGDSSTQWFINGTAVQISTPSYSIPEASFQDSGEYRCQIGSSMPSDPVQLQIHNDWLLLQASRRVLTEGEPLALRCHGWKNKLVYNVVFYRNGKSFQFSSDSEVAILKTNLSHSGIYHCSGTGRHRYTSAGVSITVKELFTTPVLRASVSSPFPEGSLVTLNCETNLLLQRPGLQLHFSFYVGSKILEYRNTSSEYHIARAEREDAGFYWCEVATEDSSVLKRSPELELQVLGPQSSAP
The assay is described as above.

The target in assay [10] is T9, mouse FcγRIIB (mouse, UniProt P08101 30-210, limits assumed).
T9 construct: Recombinant His-tagged protein
T9 sequence (looked up): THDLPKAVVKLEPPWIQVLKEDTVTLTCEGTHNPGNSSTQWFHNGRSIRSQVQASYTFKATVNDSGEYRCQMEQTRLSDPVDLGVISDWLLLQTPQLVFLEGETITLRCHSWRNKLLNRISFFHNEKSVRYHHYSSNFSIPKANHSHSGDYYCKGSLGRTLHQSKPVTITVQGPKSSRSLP
The assay is described as above.

In assay [11] the target is T10, mouse FcγRIII (mouse, UniProt P08508 31-215).
T10 construct: Recombinant His-tagged protein
T10 sequence (looked up): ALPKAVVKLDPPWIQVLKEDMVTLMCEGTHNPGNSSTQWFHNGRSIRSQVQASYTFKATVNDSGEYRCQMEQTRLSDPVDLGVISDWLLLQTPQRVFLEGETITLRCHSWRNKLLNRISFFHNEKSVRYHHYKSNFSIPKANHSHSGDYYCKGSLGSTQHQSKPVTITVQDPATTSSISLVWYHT
The description is as above.

Assay [12] addresses T11, mouse FcγRIV (mouse, UniProt A0A0B4J1G0 21-203).
T11 construct: Recombinant His-tagged protein
T11 sequence: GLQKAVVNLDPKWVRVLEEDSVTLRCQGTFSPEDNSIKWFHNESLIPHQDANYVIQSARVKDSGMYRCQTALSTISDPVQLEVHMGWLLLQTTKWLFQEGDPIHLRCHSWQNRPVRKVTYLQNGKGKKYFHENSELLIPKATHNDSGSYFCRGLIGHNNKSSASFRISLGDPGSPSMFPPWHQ
Described as above.

Assay [13] has as its target T12, mouse C1q (mouse, UniProt P98086 23-245; P14106 26-253; Q02105 30-246).
T12 construct: Plates were coated with BALB/c mouse serum as the source of mouse C1q; also called mc1q
The assay is described as follows: ELISA, plate coated with BALB/c mouse serum (mouse C1q).

T1 sequence (P02745 23-245 limits assumed, chain 1 of 3): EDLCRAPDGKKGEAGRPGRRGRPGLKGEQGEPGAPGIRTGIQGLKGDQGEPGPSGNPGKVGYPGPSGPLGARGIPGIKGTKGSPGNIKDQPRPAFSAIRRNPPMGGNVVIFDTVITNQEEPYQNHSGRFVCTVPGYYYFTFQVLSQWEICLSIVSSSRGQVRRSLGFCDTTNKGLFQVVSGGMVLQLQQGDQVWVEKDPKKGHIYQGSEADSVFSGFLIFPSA
T1 sequence (P02746 28-253 limits assumed, chain 2 of 3): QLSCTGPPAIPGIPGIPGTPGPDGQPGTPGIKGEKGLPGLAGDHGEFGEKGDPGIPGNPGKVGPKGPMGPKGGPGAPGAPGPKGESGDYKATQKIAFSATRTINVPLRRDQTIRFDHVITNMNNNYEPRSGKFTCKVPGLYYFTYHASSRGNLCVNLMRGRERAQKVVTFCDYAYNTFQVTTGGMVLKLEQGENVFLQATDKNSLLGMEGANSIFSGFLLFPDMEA
T1 sequence (P02747 29-245 limits assumed, chain 3 of 3): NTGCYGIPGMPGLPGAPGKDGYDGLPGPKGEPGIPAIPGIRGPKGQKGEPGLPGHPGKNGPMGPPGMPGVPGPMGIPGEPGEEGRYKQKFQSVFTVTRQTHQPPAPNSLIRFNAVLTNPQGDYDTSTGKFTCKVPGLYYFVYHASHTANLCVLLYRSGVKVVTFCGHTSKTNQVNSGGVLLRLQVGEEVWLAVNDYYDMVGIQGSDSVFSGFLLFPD
T7 sequence (P08637 17-208 limits assumed): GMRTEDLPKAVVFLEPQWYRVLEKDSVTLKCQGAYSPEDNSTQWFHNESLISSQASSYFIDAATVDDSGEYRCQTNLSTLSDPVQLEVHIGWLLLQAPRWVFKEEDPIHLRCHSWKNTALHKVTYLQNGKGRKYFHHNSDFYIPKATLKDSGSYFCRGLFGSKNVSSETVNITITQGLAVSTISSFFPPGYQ
T2 sequence (P12314 16-288 limits assumed): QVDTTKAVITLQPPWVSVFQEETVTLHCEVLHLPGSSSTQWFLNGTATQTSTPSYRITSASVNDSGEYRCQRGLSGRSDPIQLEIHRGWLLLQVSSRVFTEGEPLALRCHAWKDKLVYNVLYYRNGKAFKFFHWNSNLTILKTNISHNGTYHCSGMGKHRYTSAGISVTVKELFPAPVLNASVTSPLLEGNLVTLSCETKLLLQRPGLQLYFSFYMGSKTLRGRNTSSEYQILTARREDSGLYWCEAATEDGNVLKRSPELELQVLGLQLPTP
T6 sequence (P08637 17-208 F176V limits assumed): as the sequence (P08637 17-208 limits assumed) above, with F160V counted along it
T12 sequence (P98086 23-245 limits assumed, chain 1 of 3): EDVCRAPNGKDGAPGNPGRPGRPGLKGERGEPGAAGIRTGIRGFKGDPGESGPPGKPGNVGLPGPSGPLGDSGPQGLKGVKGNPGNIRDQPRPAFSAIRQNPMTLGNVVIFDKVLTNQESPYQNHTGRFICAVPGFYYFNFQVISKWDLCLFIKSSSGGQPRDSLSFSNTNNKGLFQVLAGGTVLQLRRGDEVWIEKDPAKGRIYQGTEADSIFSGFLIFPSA
T12 sequence (P14106 26-253 limits assumed, chain 2 of 3): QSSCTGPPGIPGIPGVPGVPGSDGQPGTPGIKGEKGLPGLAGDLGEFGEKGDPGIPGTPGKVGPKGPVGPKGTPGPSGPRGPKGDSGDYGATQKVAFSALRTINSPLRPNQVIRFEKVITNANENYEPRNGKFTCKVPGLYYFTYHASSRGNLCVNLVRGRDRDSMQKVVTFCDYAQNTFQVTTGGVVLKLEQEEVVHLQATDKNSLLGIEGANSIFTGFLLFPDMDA
T12 sequence (Q02105 30-246 limits assumed, chain 3 of 3): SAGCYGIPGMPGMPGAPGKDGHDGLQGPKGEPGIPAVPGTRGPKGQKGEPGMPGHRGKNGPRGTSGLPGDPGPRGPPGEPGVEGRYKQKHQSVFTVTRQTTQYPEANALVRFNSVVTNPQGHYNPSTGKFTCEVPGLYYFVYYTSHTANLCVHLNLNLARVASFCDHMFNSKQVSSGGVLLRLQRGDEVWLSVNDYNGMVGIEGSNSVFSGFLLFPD

B1: 3F6-hIgG1HEK-deGal (antibody)
heavy: not shown
light: DIVLTQSPDSLAVSLGERATINCRASESVEYSGASLMQWYQHKPGQPPKLLIYAASNRESGVPDRFSGSGSGTDFTLTISPVQAEDVAMYFCQQSRKVPSTFGGGTKLEIKRTVAAPSVFIFPPSDEQLKSGTASVVCLLNNFYPREAKVQWKVDNALQSGNSQESVTEQDSKDSTYSLSSTLTLSKADYEKHKVYACEVTHQGLSSPVTKSFNRGEC
modifications: Asn297 N-glycans de-galactosylated with β1-4-galactosidase
notes: See m5
In the case of B1, the Ka in assay [1] stood at 4e+06 M⁻¹.

B2: 3F6-hIgG1CHO-G2F (antibody)
heavy: not shown
light: DIVLTQSPDSLAVSLGERATINCRASESVEYSGASLMQWYQHKPGQPPKLLIYAASNRESGVPDRFSGSGSGTDFTLTISPVQAEDVAMYFCQQSRKVPSTFGGGTKLEIKRTVAAPSVFIFPPSDEQLKSGTASVVCLLNNFYPREAKVQWKVDNALQSGNSQESVTEQDSKDSTYSLSSTLTLSKADYEKHKVYACEVTHQGLSSPVTKSFNRGEC
modifications: Asn297 N-glycan remodelled chemoenzymatically to homogeneous G2F
notes: Endo-S2 deglycosylation and EndoS2-D184M transfer of G2F glycan; also called 3F6-hIgGCHO-G2F
In the case of B2, the Ka in assay [1] is 5.11e+07 M⁻¹.

B3: 3F6-hIgG1CHO-deSia (antibody)
heavy: not shown
light: DIVLTQSPDSLAVSLGERATINCRASESVEYSGASLMQWYQHKPGQPPKLLIYAASNRESGVPDRFSGSGSGTDFTLTISPVQAEDVAMYFCQQSRKVPSTFGGGTKLEIKRTVAAPSVFIFPPSDEQLKSGTASVVCLLNNFYPREAKVQWKVDNALQSGNSQESVTEQDSKDSTYSLSSTLTLSKADYEKHKVYACEVTHQGLSSPVTKSFNRGEC
modifications: Asn297 N-glycans de-sialylated with neuraminidase
notes: 3F6-hIgG1CHO after neuraminidase
In [1], B3 yielded a Ka of 5.5e+06 M⁻¹.

B4: 3F6-hIgG1HEK-afu (antibody)
heavy: not shown
light: DIVLTQSPDSLAVSLGERATINCRASESVEYSGASLMQWYQHKPGQPPKLLIYAASNRESGVPDRFSGSGSGTDFTLTISPVQAEDVAMYFCQQSRKVPSTFGGGTKLEIKRTVAAPSVFIFPPSDEQLKSGTASVVCLLNNFYPREAKVQWKVDNALQSGNSQESVTEQDSKDSTYSLSSTLTLSKADYEKHKVYACEVTHQGLSSPVTKSFNRGEC
modifications: Asn297 N-glycans low in fucose and galactose (HEK-293F cells grown with kifunensine)
notes: See m5; also called afucosylated 3F6-hIgG1HEK
As for B4, the Ka in assay [2] stood at 5.97e+06 M⁻¹; in assay [3] it was 5.83e+08 M⁻¹; in [4], 1.82e+06 M⁻¹; in assay [5], 1.51e+06 M⁻¹; in assay [6], 179000 M⁻¹; in assay [7] it was 5.63e+07 M⁻¹. In addition, the Ka in [8] turned out to be 9.2e+06 M⁻¹; in [9] it was 9.2e+07 M⁻¹; in [10] it was 1.62e+06 M⁻¹; in assay [11], 2.3e+06 M⁻¹; in assay [12], 3.19e+08 M⁻¹; in assay [13], 2.79e+06 M⁻¹.

B5: 3F6-hIgG1HEK-G2F (antibody)
heavy: not shown
light: DIVLTQSPDSLAVSLGERATINCRASESVEYSGASLMQWYQHKPGQPPKLLIYAASNRESGVPDRFSGSGSGTDFTLTISPVQAEDVAMYFCQQSRKVPSTFGGGTKLEIKRTVAAPSVFIFPPSDEQLKSGTASVVCLLNNFYPREAKVQWKVDNALQSGNSQESVTEQDSKDSTYSLSSTLTLSKADYEKHKVYACEVTHQGLSSPVTKSFNRGEC
modifications: Asn297 N-glycan remodelled chemoenzymatically to homogeneous G2F
notes: See m5; also called 3F6-hIgGHEK-G2F
For the molecule B5, in assay [1], the Ka is 5.5e+07 M⁻¹.

B6: 3F6-hIgG1HEK-G0F (antibody)
heavy: not shown
light: DIVLTQSPDSLAVSLGERATINCRASESVEYSGASLMQWYQHKPGQPPKLLIYAASNRESGVPDRFSGSGSGTDFTLTISPVQAEDVAMYFCQQSRKVPSTFGGGTKLEIKRTVAAPSVFIFPPSDEQLKSGTASVVCLLNNFYPREAKVQWKVDNALQSGNSQESVTEQDSKDSTYSLSSTLTLSKADYEKHKVYACEVTHQGLSSPVTKSFNRGEC
modifications: Asn297 N-glycan remodelled chemoenzymatically to homogeneous G0F
notes: See m5; also called 3F6-hIgGHEK-G0F
The molecule B6 gave a Ka in assay [1] of 6.94e+06 M⁻¹.

B7: 3F6-hIgG1CHO-Gal (antibody)
heavy: not shown
light: DIVLTQSPDSLAVSLGERATINCRASESVEYSGASLMQWYQHKPGQPPKLLIYAASNRESGVPDRFSGSGSGTDFTLTISPVQAEDVAMYFCQQSRKVPSTFGGGTKLEIKRTVAAPSVFIFPPSDEQLKSGTASVVCLLNNFYPREAKVQWKVDNALQSGNSQESVTEQDSKDSTYSLSSTLTLSKADYEKHKVYACEVTHQGLSSPVTKSFNRGEC
modifications: Asn297 N-glycans enzymatically galactosylated (β1,4GalT)
notes: 3F6-hIgG1CHO after enzymatic galactosylation; also called 3F6-IgG1CHO-Gal
On to B7, for which, in [1], the Ka was 2.17e+07 M⁻¹.

B8: 3F6-hIgG1HEK-deSia (antibody)
heavy: not shown
light: DIVLTQSPDSLAVSLGERATINCRASESVEYSGASLMQWYQHKPGQPPKLLIYAASNRESGVPDRFSGSGSGTDFTLTISPVQAEDVAMYFCQQSRKVPSTFGGGTKLEIKRTVAAPSVFIFPPSDEQLKSGTASVVCLLNNFYPREAKVQWKVDNALQSGNSQESVTEQDSKDSTYSLSSTLTLSKADYEKHKVYACEVTHQGLSSPVTKSFNRGEC
modifications: Asn297 N-glycans de-sialylated with neuraminidase
notes: See m5
As for B8, the Ka in [1] stood at 3.37e+07 M⁻¹.

B9: 3F6-hIgG1HEK-G1F (antibody)
heavy: not shown
light: DIVLTQSPDSLAVSLGERATINCRASESVEYSGASLMQWYQHKPGQPPKLLIYAASNRESGVPDRFSGSGSGTDFTLTISPVQAEDVAMYFCQQSRKVPSTFGGGTKLEIKRTVAAPSVFIFPPSDEQLKSGTASVVCLLNNFYPREAKVQWKVDNALQSGNSQESVTEQDSKDSTYSLSSTLTLSKADYEKHKVYACEVTHQGLSSPVTKSFNRGEC
modifications: Asn297 N-glycan remodelled chemoenzymatically to homogeneous G1F
notes: See m5; also called 3F6-hIgGHEK-G1F
Consider B9, for which the Ka in assay [1] stood at 3.83e+07 M⁻¹.

B10: 3F6-hIgG1HEK-KA (antibody, name in EU numbering)
heavy: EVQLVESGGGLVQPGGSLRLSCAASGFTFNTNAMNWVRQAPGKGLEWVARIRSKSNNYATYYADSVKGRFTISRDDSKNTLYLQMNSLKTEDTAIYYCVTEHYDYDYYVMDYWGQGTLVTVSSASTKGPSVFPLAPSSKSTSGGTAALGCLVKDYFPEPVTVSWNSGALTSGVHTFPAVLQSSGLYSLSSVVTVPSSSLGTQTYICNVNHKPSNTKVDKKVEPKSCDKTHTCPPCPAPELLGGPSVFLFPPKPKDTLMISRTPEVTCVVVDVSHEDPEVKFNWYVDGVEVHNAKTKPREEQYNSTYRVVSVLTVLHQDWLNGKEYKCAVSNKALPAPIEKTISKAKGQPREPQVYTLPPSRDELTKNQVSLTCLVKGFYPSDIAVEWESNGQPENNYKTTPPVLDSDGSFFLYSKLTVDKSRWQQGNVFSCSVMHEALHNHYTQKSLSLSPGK
light: DIVLTQSPDSLAVSLGERATINCRASESVEYSGASLMQWYQHKPGQPPKLLIYAASNRESGVPDRFSGSGSGTDFTLTISPVQAEDVAMYFCQQSRKVPSTFGGGTKLEIKRTVAAPSVFIFPPSDEQLKSGTASVVCLLNNFYPREAKVQWKVDNALQSGNSQESVTEQDSKDSTYSLSSTLTLSKADYEKHKVYACEVTHQGLSSPVTKSFNRGEC
notes: also called KA variant
Turning to B10, the Ka in assay [2] turned out to be 1.37e+06 M⁻¹; in [3], 7.86e+08 M⁻¹; in assay [4] it was 1.81e+06 M⁻¹; in assay [5], 1.23e+06 M⁻¹; in assay [6] it was 1.18e+06 M⁻¹; in [7], 1.4e+07 M⁻¹. Also, the Ka in [8] was 1.51e+06 M⁻¹; in assay [9], 3.97e+08 M⁻¹; in [10], 3.35e+06 M⁻¹; in assay [11] it was 2.96e+06 M⁻¹; in [12], 2.66e+08 M⁻¹; in assay [13] it was 1.34e+06 M⁻¹.
